In experiment [1] the target is BS69 CC-MYND (Homo sapiens) (UniProt Q15326). Conditions: cited from earlier work.
Experiment [2] addresses BS69 coiled-coil MYND domain (BS69_(CC-MYND), amino acids 480-602) (human) (UniProt Q15326). Kind of experiment: ITC; EBNA2 polypeptide titrated into 0.1 mM BS69_(CC-MYND) in the cell, 19 x 2.0 μl injections, 25°C, 20 mM Tris-HCl, 100 mM NaCl, 1 mM TCEP, pH 7.5; one-site (one event) model; n calculated for monomeric proteins.
The target is the same in experiment [3]. Kind of experiment: ITC; EBNA2 polypeptide (0.3 or 0.6 mM) titrated into 0.1 mM BS69_(CC-MYND) in the cell, 19 x 2.0 µl injections, 25°C, 20 mM Tris-HCl, 100 mM NaCl, 1 mM TCEP, pH 7.5; one-site (one event) model; n on monomer concentrations; mean of 3 experiments.

Drawing on publication PMC6638984, “Increased association between Epstein-Barr virus EBNA2 from type 2 strains and the transcriptional repressor BS69 restricts EBNA2 activity” (PLoS Pathogens, 2019), this text covers Kd and stoichiometry N for three substances.

Usually Kd stands for the equilibrium constant for the complex coming apart. In general, stoichiometry N refers to the number of molecules, sites or subunits per partner or assembly.

Chain of BS69 coiled-coil MYND domain (BS69_(CC-MYND), amino acids 480-602) (human) (Q15326 480-602): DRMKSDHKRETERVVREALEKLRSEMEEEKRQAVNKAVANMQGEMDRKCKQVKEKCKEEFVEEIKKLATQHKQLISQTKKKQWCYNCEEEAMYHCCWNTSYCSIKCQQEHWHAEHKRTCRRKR
Chain of type 1 EBNA2 polypeptide T1 EBNA2_(381-445) (domain or fragment) (P12978 381-445): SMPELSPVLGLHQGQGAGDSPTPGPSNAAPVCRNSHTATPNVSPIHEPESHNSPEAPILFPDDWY
Chain of type 1 EBNA2 polypeptide T1 EBNA2_(381-455) (domain or fragment) (P12978 381-455): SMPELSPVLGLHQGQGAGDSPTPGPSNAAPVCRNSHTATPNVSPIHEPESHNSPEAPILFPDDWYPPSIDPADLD
Chain of BS69 CC-MYND (Homo sapiens) (Q15326 480-602): as the sequence (Q15326 480-602) above

Take “EBNA2 type 1 motif 2 peptide motif 2 (from UniProt P12978)”: the Kd in experiment [1] was 35 µM.
Regarding “type 1 EBNA2 polypeptide T1 EBNA2_(381-445) (domain or fragment)”, in experiment [2], the equilibrium dissociation constant (Kd) was 0.95 µM and the stoichiometry N is 0.42.
Turning to “type 1 EBNA2 polypeptide T1 EBNA2_(381-455) (domain or fragment)”, the stoichiometry N in experiment [3] stood at 0.38.
